According to paper PMC3799859:

B1: ΔIRE1-V5/His (ER lumenal domain of human IRE1) [human] / FLAG-tagged full-length wild-type IRE1 [human] (parent)
chain 1: IFGSTSTVTLPETLLFVSTLDGSLHAVSKRTGSIKWTLKEDPVLQVPTHVEEPAFLPDPNDGSLYTLGSKNNEGLTKLPFTIPELVQASPCRSSDGILYMGKKQDIWYVIDLLTGEKQQTLSSAFADSLCPSTSLLYLGRTEYTITMYDTKTRELRWNATYFDYAASLPEDDVDYKMSHFVSNGDGLVVTVDSESGDVLWIQNYASPVVAFYVWQREGLRKVMHINVAVETLRYLTFMSGEVGRITKWKYPFPKETEAKSKLTPTLYVGKYSTSLYASPSMVHEGVAVVPRGSTLPLLEGPQTDGVTIGDKGECVITPSTDVKFDPGLKSKNKLNYLRNYWLLIGHHETPLSASTKMLERFPNNLPKHRENVIPADSEKKSFEEVINLVDQTSENAPTTVSRDVEEKPAHAPARPEAPVDSMLKDMATIILSTFLLIGWVAFIITYPLSMHQQQQLQHQQFQKELEKIQLLQQQQQQLPFHPPGDTAQDGELLDTSGPYSESSGTSSPSTSPRASNHSLCSGSSASKAGSSPSLEQDDGDEETSVVIVGKISFCPKDVLGHGAEGTIVYRGMFDNRDVAVKRILPECFSFADREVQLLRESDEHPNVIRYFCTEKDRQFQYIAIELCAATLQEYVEQKDFAHLGLEPITLLQQTTSGLAHLHSLNIVHRDLKPHNILISMPNAHGKIKAMISDFGLCKKLAVGRHSFSRRSGVPGTEGWIAPEMLSEDCKENPTYTVDIFSAGCVFYYVISEGSHPFGKSLQRQANILLGACSLDCLHPEKHEDVIARELIEKMIAMDPQKRPSAKHVLKHPFFWSLEKQLQFFQDVSDRIEKESLDGPIVKQLERGGRAVVKMDWRENITVPLQTDLRKFRTYKGGSVRDLLRAMRNKKHHYRELPAEVRETLGSLPDDFVCYFTSRFPHLLAHTYRAMELCSHERLFQPYYFHEPPEPQPPVTPDAL
chain 2: IFGSTSTVTLPETLLFVSTLDGSLHAVSKRTGSIKWTLKEDPVLQVPTHVEEPAFLPDPNDGSLYTLGSKNNEGLTKLPFTIPELVQASPCRSSDGILYMGKKQDIWYVIDLLTGEKQQTLSSAFADSLCPSTSLLYLGRTEYTITMYDTKTRELRWNATYFDYAASLPEDDVDYKMSHFVSNGDGLVVTVDSESGDVLWIQNYASPVVAFYVWQREGLRKVMHINVAVETLRYLTFMSGEVGRITKWKYPFPKETEAKSKLTPTLYVGKYSTSLYASPSMVHEGVAVVPRGSTLPLLEGPQTDGVTIGDKGECVITPSTDVKFDPGLKSKNKLNYLRNYWLLIGHHETPLSASTKMLERFPNNLPKHRENVIPADSEKKSFEEVINLVDQTSENAPTTVSRDVEEKPAHAPARPEAPVDSMLKD

Variants of: B1
Test: co-immunoprecipitation (IP: V5, Western blot for FLAG, quantified)
Conditions: with FLAG-tagged full-length wild-type IRE1 [human]; with Sig-1R overexpression; non-stressed cells; n = 4; read off a plot

screen value [%]	Variant
58	chain 2 D105P
